According to patent US20240209086A1 (PETMEDIX, published 2024):

Molecular target: canine CD3 on canine T cells (canine PBMC) (canine, UniProt P27597 22-202)
Test: cell-based or functional assay

canine CD3 on canine T cells (canine PBMC), sequence (P27597 22-202 limits assumed, chain 1 of 3): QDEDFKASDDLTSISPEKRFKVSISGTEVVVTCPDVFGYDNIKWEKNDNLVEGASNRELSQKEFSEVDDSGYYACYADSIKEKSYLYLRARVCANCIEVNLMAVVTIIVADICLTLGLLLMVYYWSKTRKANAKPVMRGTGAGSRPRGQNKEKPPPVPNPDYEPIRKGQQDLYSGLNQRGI
canine CD3 on canine T cells (canine PBMC), sequence (chain, as listed by the source limits assumed, chain 2 of 3): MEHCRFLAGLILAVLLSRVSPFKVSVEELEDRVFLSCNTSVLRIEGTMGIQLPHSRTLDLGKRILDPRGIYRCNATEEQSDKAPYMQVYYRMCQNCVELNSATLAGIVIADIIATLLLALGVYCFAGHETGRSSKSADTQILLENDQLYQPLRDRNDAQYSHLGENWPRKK
canine CD3 on canine T cells (canine PBMC), sequence (chain, as listed by the source limits assumed, chain 3 of 3): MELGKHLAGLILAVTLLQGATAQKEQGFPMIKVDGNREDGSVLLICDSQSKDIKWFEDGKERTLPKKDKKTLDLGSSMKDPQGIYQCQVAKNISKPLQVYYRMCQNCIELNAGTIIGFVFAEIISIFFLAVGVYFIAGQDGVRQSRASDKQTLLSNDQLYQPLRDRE

CD25 Activation, Day 6, IS | CD25 Activation, Day 6, PB | CD25 Activation, Day 9, IS | CD25 Activation, Day 9, PB | IFNy Concentration pg/ml, Day 6, IS | IFNy Concentration pg/ml, Day 9, IS | IFNy Concentration pg/ml, Day 9, PB | Ki67 Proliferation, Day 6, IS | Ki67 Proliferation, Day 6, PB | Ki67 Proliferation, Day 9, IS | Binder
7.37 | 8.61 | 8.21 | 8.48 | 17.4 pg/mL | 627 pg/mL | 591 pg/mL | 0.95 | 0.089 | 1.03 | PMX174 (monospecific anti-canine CD3, canine IgG-B effector function deficient Fc) (antibody) heavy: EVQLVESGGDLVKAGVSLRLSCVASGFTFSNYHLNWVRQAPGKGPQWVASINSGGSSTYYADAVKGRFTISRDNAKNTLYLQMNSLRAEDTAVYYCASDHGSYRGMDYWGHGTSLFVSSASTTAPSVFPLAPSCGSTSGSTVALACLVSGYFPEPVTVSWNSGSLTSGVHTFPSVLQSSGLYSLSSMVTVPSSRWPSETFTCNVAHPASKTKVDKPVPKRENGRVPRPPDCPKCPAPESLGGPSVFIFPPKPKDTLLIARTPEVTCVVVDLGREDPEVQISWFVDGKQMQTAKTQPREEQFNGTYRVVSVLPIGHQDWLKGKQFTCKVNHIGLPSPIERTISKARGQAHQPSVYVLPPSREELSKNTVSLTCLIKDFFPPDIDVEWQSNGQQEPESKYRTTPPQLDEDGSYFLYSKLSVDKSRWQRGDTFICAVMHEALHNHYTQKSLSHSPGK VL: SYVLTQLPSKNVTLKQPAHITCGGDNIGSKSVHWYQQKLGQAPVLIIYYDSSRPTGIPERFSGANSGNTATLTISGALAEDEADYYCQVWDSSAKAVFGGGTHLTVL
9.44 | 11.8 | 7.39 | 11.3 | 71.3 pg/mL | 114 pg/mL | 282 pg/mL | 1.99 | 0.27 | 0.79 | PMX170 (monospecific anti-canine CD3, canine IgG-B effector function deficient Fc) (antibody) heavy: EVQLVESGGDLVKPGGSLRLSCVASGFTFSSYHMSWVRQAPGKGLQWVAYSNSGGSRTSYADAVKGRFTISRDNAKNTLYLQMSSLRAEDTAVYYCASEGGGGRYGFKDYGMDYWGHGTSLFVSSASTTAPSVFPLAPSCGSTSGSTVALACLVSGYFPEPVTVSWNSGSLTSGVHTFPSVLQSSGLYSLSSMVTVPSSRWPSETFTCNVAHPASKTKVDKPVPKRENGRVPRPPDCPKCPAPESLGGPSVFIFPPKPKDTLLIARTPEVTCVVVDLGREDPEVQISWFVDGKQMQTAKTQPREEQFNGTYRVVSVLPIGHQDWLKGKQFTCKVNHIGLPSPIERTISKARGQAHQPSVYVLPPSREELSKNTVSLTCLIKDFFPPDIDVEWQSNGQQEPESKYRTTPPQLDEDGSYFLYSKLSVDKSRWQRGDTFICAVMHEALHNHYTQKSLSHSPGK VL: SYVLTQLPSKNVTLKQPAHITCGGDNIGSKSVHWYQQKLGQAPVLIIYYDSSRPTGIPERFSGANSGNTATLTISGALAEDEADYYCQVWDSSAKAWVFGEGTQLTVL
11.9 | 13.7 | 10.4 | 6.22 | 106 pg/mL | 146 pg/mL | 277 pg/mL | 0.98 | 0.57 | 1.91 | PMX171 (monospecific anti-canine CD3, canine IgG-B effector function deficient Fc) (antibody) heavy: EVQLVESGGDLVKPGGSLRLSCEASGFTFSSYHMSWVRQAPGKGLQWVAYINNGGSGTSYADAVKGRFTISRDNAKNTLYLQMNSLRAEDTAVYFCASEGGGKRYGYKDYGMDYWGHGTSLFVSSASTTAPSVFPLAPSCGSTSGSTVALACLVSGYFPEPVTVSWNSGSLTSGVHTFPSVLQSSGLYSLSSMVTVPSSRWPSETFTCNVAHPASKTKVDKPVPKRENGRVPRPPDCPKCPAPESLGGPSVFIFPPKPKDTLLIARTPEVTCVVVDLGREDPEVQISWFVDGKQMQTAKTQPREEQFNGTYRVVSVLPIGHQDWLKGKQFTCKVNHIGLPSPIERTISKARGQAHQPSVYVLPPSREELSKNTVSLTCLIKDFFPPDIDVEWQSNGQQEPESKYRTTPPQLDEDGSYFLYSKLSVDKSRWQRGDTFICAVMHEALHNHYTQKSLSHSPGK VL: SYVLTQLPSKNVTLKQPAHITCGGDNIGSKSVHWYQQKLGQAPVLIIYYDSSRPTGIPERFSGANSGNTATLTISGALAEDEADYYCQVWDSSAKAWVFGEGTQLTVL

Same assay, conditions: not given

Ki67 Proliferation, Day 9, PB | Binder
0 | PMX174 (monospecific anti-canine CD3, canine IgG-B effector function deficient Fc) (antibody) heavy: EVQLVESGGDLVKAGVSLRLSCVASGFTFSNYHLNWVRQAPGKGPQWVASINSGGSSTYYADAVKGRFTISRDNAKNTLYLQMNSLRAEDTAVYYCASDHGSYRGMDYWGHGTSLFVSSASTTAPSVFPLAPSCGSTSGSTVALACLVSGYFPEPVTVSWNSGSLTSGVHTFPSVLQSSGLYSLSSMVTVPSSRWPSETFTCNVAHPASKTKVDKPVPKRENGRVPRPPDCPKCPAPESLGGPSVFIFPPKPKDTLLIARTPEVTCVVVDLGREDPEVQISWFVDGKQMQTAKTQPREEQFNGTYRVVSVLPIGHQDWLKGKQFTCKVNHIGLPSPIERTISKARGQAHQPSVYVLPPSREELSKNTVSLTCLIKDFFPPDIDVEWQSNGQQEPESKYRTTPPQLDEDGSYFLYSKLSVDKSRWQRGDTFICAVMHEALHNHYTQKSLSHSPGK VL: SYVLTQLPSKNVTLKQPAHITCGGDNIGSKSVHWYQQKLGQAPVLIIYYDSSRPTGIPERFSGANSGNTATLTISGALAEDEADYYCQVWDSSAKAVFGGGTHLTVL
0.47 | PMX170 (monospecific anti-canine CD3, canine IgG-B effector function deficient Fc) (antibody) heavy: EVQLVESGGDLVKPGGSLRLSCVASGFTFSSYHMSWVRQAPGKGLQWVAYSNSGGSRTSYADAVKGRFTISRDNAKNTLYLQMSSLRAEDTAVYYCASEGGGGRYGFKDYGMDYWGHGTSLFVSSASTTAPSVFPLAPSCGSTSGSTVALACLVSGYFPEPVTVSWNSGSLTSGVHTFPSVLQSSGLYSLSSMVTVPSSRWPSETFTCNVAHPASKTKVDKPVPKRENGRVPRPPDCPKCPAPESLGGPSVFIFPPKPKDTLLIARTPEVTCVVVDLGREDPEVQISWFVDGKQMQTAKTQPREEQFNGTYRVVSVLPIGHQDWLKGKQFTCKVNHIGLPSPIERTISKARGQAHQPSVYVLPPSREELSKNTVSLTCLIKDFFPPDIDVEWQSNGQQEPESKYRTTPPQLDEDGSYFLYSKLSVDKSRWQRGDTFICAVMHEALHNHYTQKSLSHSPGK VL: SYVLTQLPSKNVTLKQPAHITCGGDNIGSKSVHWYQQKLGQAPVLIIYYDSSRPTGIPERFSGANSGNTATLTISGALAEDEADYYCQVWDSSAKAWVFGEGTQLTVL
0.52 | PMX171 (monospecific anti-canine CD3, canine IgG-B effector function deficient Fc) (antibody) heavy: EVQLVESGGDLVKPGGSLRLSCEASGFTFSSYHMSWVRQAPGKGLQWVAYINNGGSGTSYADAVKGRFTISRDNAKNTLYLQMNSLRAEDTAVYFCASEGGGKRYGYKDYGMDYWGHGTSLFVSSASTTAPSVFPLAPSCGSTSGSTVALACLVSGYFPEPVTVSWNSGSLTSGVHTFPSVLQSSGLYSLSSMVTVPSSRWPSETFTCNVAHPASKTKVDKPVPKRENGRVPRPPDCPKCPAPESLGGPSVFIFPPKPKDTLLIARTPEVTCVVVDLGREDPEVQISWFVDGKQMQTAKTQPREEQFNGTYRVVSVLPIGHQDWLKGKQFTCKVNHIGLPSPIERTISKARGQAHQPSVYVLPPSREELSKNTVSLTCLIKDFFPPDIDVEWQSNGQQEPESKYRTTPPQLDEDGSYFLYSKLSVDKSRWQRGDTFICAVMHEALHNHYTQKSLSHSPGK VL: SYVLTQLPSKNVTLKQPAHITCGGDNIGSKSVHWYQQKLGQAPVLIIYYDSSRPTGIPERFSGANSGNTATLTISGALAEDEADYYCQVWDSSAKAWVFGEGTQLTVL
